B1: C. elegans APE-1 (sole ASPP homolog), endogenous, tagged with GFP and 3xflag [C. elegans] / C. elegans GSP-2 (PP1 homolog), endogenously HaloTagged [modified: JF646 dye on the HaloTag (single-molecule assay); JFX646 dye on the … (parent)
chain 1: MVTTSSGGGIGYPANNGVTQVSLIHSSDSVRTVSTAPIYRPTSSMASTMAHKSSTAPFISANQRMSKPPVRVVAQPPPPHPQALSQQYHQQNPMMMYSAPNTRPHVIPTMQVQPTMAAQIKRNNPVNAQFQNPSEMIADYGVKPQSVEMVQRVRAVRRQVADEETELRRLRELEHETAQLQNKNYGRERELNVQGSMLKEAQLELRNASMRAQSLNKHLEEMYRRRQTAAAAALVEQRKMQQHQILLARAANQVSTQEVIRPRASVEPFQVNNTQQQQPSPQMMKSEEFSEKRDLNGQTGSYDAIDGSGDHQKIPTEPSYLAPCKENQQKYSELSKMASTDPHSNHSSPSTSSQKAPTLITFSPPSFEQKINSSTMTRDSPFVERPTSFGDSLDESRLRSGKTDLVSLRSDSLKATKRRSWAASEGTSMSEAEMIHRLLDEQRRGRSHFIPQLPTSQEEPSAITSETYAEEVVNSESKQVATSSDSTNNLELPTEQMVLGSDTTTEEDASSCSTRSDDGQNLEMEVAIERRTVKGILRRPNEKMNKGRIEFDPLALLLDAALEGELDLVRSSASKLTDVSQANDEGITALHNAICAGHYEIVRFLIENDADVNAQDSDGWTPLHCAASCNNLPMVRQLVEGGGCVLASTLSDMETPVEKCEEDEDGYDGCLKYLSAAHNSTGSINTGKVYAAYGYEAAFEDELSFDAGDELTVIEKDKVDKNWWTCEKNNGEKGQVPRTYLALYPSLKYRKKLNFVMFDLPLESNNNVE
chain 2: MDVEKLNLDNIISRLLEVRGSKPGKNVQLTESEIKGLCQKSREIFLSQPILLELEAPLKICGDVHGQYYDLLRLFEYGGFPPESNYLFLGDYVDRGKQSLETICLLLAYKIKYPENFFLLRGNHECASINRIYGFYDECKRRYNIKLWKTFTDCFNCLPVAAIIDEKIFCCHGGLSPDLQSMEQIRRIMRPTDVPDQGLLCDLLWSDPDKDVTGWGENDRGVSFTFGPEVVAKFLHKHDLDLICRAHQVVEDGYEFFAKRQLVTLFSAPNYCGEFDNAGSMMTVDETLMCSFQILKPADKKKYPYGAGGVGSNRPVTPPRNAPAAQPKKGAKK

What was measured:
[1] = variants of: B1; experiment: single-molecule photobleaching analysis by TIRF microscopy; conditions: with C. elegans GSP-2 (PP1 homolog)
[2] = variants of: B1; experiment: MudPIT analysis of 3xflag immunoprecipitations from whole-worm lysates; conditions: with C. elegans GSP-2 (PP1 homolog) in whole-worm lysates of the MudPIT experiment [C. elegans (endogenous in whole worms)]; for response (% of total protein): parent: 10.8; for screen value: parent: 20

Row | screen value ([1]; p=0.531 vs APE-1, read off a plot) | response (% of total protein) ([2]; bait recovered in same sample: 0.12 % of total protein (wild-type bait 0.54)) | screen value [2] | screen value ([1]; p = 0.008 vs APE-1, read off a plot) | response (% of total protein) ([2]; bait recovered in same sample: 0.22 % of total protein (wild-type bait 0.54)) | Variant
1 | 37% | 0.87 | 7 | – | – | chain 1 H591Y
2 | – | – | 4 | 34% | 0.87 | chain 1 N583K

Source: article PMC12543280
